Data published in article PMC3401642.

How the values were obtained:
[1] = target: HIV-1 subtype C Env clone COT9.6 V295N (HIV-1 subtype C)
[2] = target: HIV-1 subtype C Env clone COT6.15 V295N (HIV-1 subtype C)
[3] = target: HIV-1 subtype C Env clone Du151.2 V295N (HIV-1 subtype C)
[4] = target: HIV-1 subtype B envelope glycoprotein (Env, gp160) clone THRO4156.18 (HIV-1 subtype B)
[5] = target: HIV-1 subtype C envelope glycoprotein (Env, gp160) clone CAP261.cvl93 (HIV-1 subtype C)
[6] = target: HIV-1 subtype C envelope glycoprotein (Env, gp160) clone COT6.15 (HIV-1 subtype C)
[7] = target: HIV-1 subtype C envelope glycoprotein (Env, gp160) clone Du151.2 (HIV-1 subtype C)
[8] = target: HIV-1 subtype C envelope glycoprotein (Env, gp160) clone COT9.6 (HIV-1 subtype C)
[9] = target: HIV-1 subtype A envelope glycoprotein (Env) clone Q168.a2 (HIV-1 subtype A)
[10] = target: HIV-1 subtype A envelope glycoprotein (Env) clone Q461.e2 (HIV-1 subtype A)
[11] = target: HIV-1 subtype C envelope glycoprotein (Env, gp160) clone CAP270.cvl44 (HIV-1 subtype C)
[12] = target: HIV-1 subtype B envelope glycoprotein (Env, gp160) clone CAAN5342.A2 (HIV-1 subtype B)
[13] = target: HIV-1 subtype C envelope glycoprotein (Env, gp160) clone CAP63.A9J (HIV-1 subtype C)
[14] = target: HIV-1 subtype A envelope glycoprotein (Env) clone 92RW009 (HIV-1 subtype A)
[15] = target: HIV-1 subtype C envelope glycoprotein (Env, gp160) clone CAP63.cvl6GA (HIV-1 subtype C)
[16] = target: HIV-1 subtype C envelope glycoprotein (Env, gp160) clone CAP177.cvl96 (HIV-1 subtype C)
[17] = target: HIV-1 subtype C envelope glycoprotein (Env, gp160) clone CAP206.08J (HIV-1 subtype C)
[18] = target: HIV-1 subtype A envelope glycoprotein (Env) clone Q23.17 (HIV-1 subtype A)
[19] = target: HIV-1 subtype C envelope glycoprotein (Env, gp160) clone CAP210.E8J (HIV-1 subtype C)
[20] = target: HIV-1 subtype C envelope glycoprotein (Env, gp160) clone CAP228.51J (HIV-1 subtype C)
[21] = target: HIV-1 subtype C envelope glycoprotein (Env, gp160) clone CAP45.G3J (HIV-1 subtype C)
[22] = target: HIV-1 subtype B envelope glycoprotein (Env, gp160) clone QH0692.42 (HIV-1 subtype B)
[23] = target: HIV-1 subtype B envelope glycoprotein (Env, gp160) clone WITO4160.33 (HIV-1 subtype B)
[24] = target: HIV-1 subtype A envelope glycoprotein (Env) clone Q842.d12 (HIV-1 subtype A)
[25] = target: HIV-1 subtype C envelope glycoprotein (Env, gp160) clone RP6.6 (HIV-1 subtype C)
[26] = target: HIV-1 subtype B envelope glycoprotein (Env, gp160) clone PVO.4 (HIV-1 subtype B)
[27] = target: HIV-1 subtype C envelope glycoprotein (Env, gp160) clone TM7.9 (HIV-1 subtype C)
[28] = target: HIV-1 subtype C envelope glycoprotein (Env, gp160) clone CAP256.F7J (HIV-1 subtype C)
[29] = target: HIV-1 subtype B envelope glycoprotein (Env, gp160) clone AC10.0.29 (HIV-1 subtype B)

## Griffithsin (from UniProt P84801 1-121) (natural protein)
[1]
  IC50 of neutralisation of Env-pseudotyped virus (TZM-bl assay): 0.06 nM
[2]
  IC50 of neutralisation of Env-pseudotyped virus (TZM-bl assay): 0.06 nM
[3]
  IC50 of neutralisation of Env-pseudotyped virus (TZM-bl assay): 0.03 nM
[4]
  IC50 of neutralisation of Env-pseudotyped virus (TZM-bl assay): 1.2 nM
[5]
  IC50 of neutralisation of Env-pseudotyped virus (TZM-bl assay): 4.2 nM
[6]
  IC50 of neutralisation of Env-pseudotyped virus (TZM-bl assay): 0.4 nM
[7]
  IC50 of neutralisation of Env-pseudotyped virus (TZM-bl assay): 1.5 nM
[8]
  IC50 of neutralisation of Env-pseudotyped virus (TZM-bl assay): 1.2 nM
[9]
  IC50 of neutralisation of Env-pseudotyped virus (TZM-bl assay): 3.3 nM
[10]
  IC50 of neutralisation of Env-pseudotyped virus (TZM-bl assay): 0.12 nM
[11]
  IC50 of neutralisation of Env-pseudotyped virus (TZM-bl assay): 0.3 nM
[12]
  IC50 of neutralisation of Env-pseudotyped virus (TZM-bl assay): 11.7 nM
[13]
  IC50 of neutralisation of Env-pseudotyped virus (TZM-bl assay): 23.2 nM
[14]
  IC50 of neutralisation of Env-pseudotyped virus (TZM-bl assay): 1.8 nM
[15]
  IC50 of neutralisation of Env-pseudotyped virus (TZM-bl assay): 25.7 nM
[16]
  IC50 of neutralisation of Env-pseudotyped virus (TZM-bl assay): 55.9 nM
[17]
  IC50 of neutralisation of Env-pseudotyped virus (TZM-bl assay): 30.9 nM
[18]
  IC50 of neutralisation of Env-pseudotyped virus (TZM-bl assay): 1.9 nM
[19]
  IC50 of neutralisation of Env-pseudotyped virus (TZM-bl assay): 0.2 nM

## Scytovirin (from UniProt P86041 1-95) (natural protein)
[1]
  IC50 of neutralisation of Env-pseudotyped virus (TZM-bl assay): 63 nM
[2]
  IC50 of neutralisation of Env-pseudotyped virus (TZM-bl assay): 16.1 nM
[3]
  IC50 of neutralisation of Env-pseudotyped virus (TZM-bl assay): 32.5 nM
[4]
  IC50 of neutralisation of Env-pseudotyped virus (TZM-bl assay): 42.6 nM
[5]
  IC50 of neutralisation of Env-pseudotyped virus (TZM-bl assay): 6.2 nM
[6]
  IC50 of neutralisation of Env-pseudotyped virus (TZM-bl assay): 10.8 nM
[7]
  IC50 of neutralisation of Env-pseudotyped virus (TZM-bl assay): 27.5 nM
[8]
  IC50 of neutralisation of Env-pseudotyped virus (TZM-bl assay): 57.6 nM
[9]
  IC50 of neutralisation of Env-pseudotyped virus (TZM-bl assay): 9.4 nM
[20]
  IC50 of neutralisation of Env-pseudotyped virus (TZM-bl assay): 20.1 nM
[10]
  IC50 of neutralisation of Env-pseudotyped virus (TZM-bl assay): 18.9 nM
[11]
  IC50 of neutralisation of Env-pseudotyped virus (TZM-bl assay): 11.7 nM
[21]
  IC50 of neutralisation of Env-pseudotyped virus (TZM-bl assay): 16.9 nM
[12]
  IC50 of neutralisation of Env-pseudotyped virus (TZM-bl assay): 188 nM
[13]
  IC50 of neutralisation of Env-pseudotyped virus (TZM-bl assay): 29.8 nM
[22]
  IC50 of neutralisation of Env-pseudotyped virus (TZM-bl assay): 27.3 nM
[23]
  IC50 of neutralisation of Env-pseudotyped virus (TZM-bl assay): 24.8 nM
[14]
  IC50 of neutralisation of Env-pseudotyped virus (TZM-bl assay): 21.8 nM
[24]
  IC50 of neutralisation of Env-pseudotyped virus (TZM-bl assay): 40.9 nM
[15]
  IC50 of neutralisation of Env-pseudotyped virus (TZM-bl assay): 43.8 nM
[16]
  IC50 of neutralisation of Env-pseudotyped virus (TZM-bl assay): 21.8 nM
[25]
  IC50 of neutralisation of Env-pseudotyped virus (TZM-bl assay): 11.3 nM
[26]
  IC50 of neutralisation of Env-pseudotyped virus (TZM-bl assay): 25.2 nM
[27]
  IC50 of neutralisation of Env-pseudotyped virus (TZM-bl assay): 12.1 nM
[17]
  IC50 of neutralisation of Env-pseudotyped virus (TZM-bl assay): 113 nM
[18]
  IC50 of neutralisation of Env-pseudotyped virus (TZM-bl assay): 29.8 nM
[28]
  IC50 of neutralisation of Env-pseudotyped virus (TZM-bl assay): 6.7 nM
[19]
  IC50 of neutralisation of Env-pseudotyped virus (TZM-bl assay): 33.1 nM
[29]
  IC50 of neutralisation of Env-pseudotyped virus (TZM-bl assay): 24.5 nM

B1: Cyanovirin-N (natural protein)
chain: LGKFSQTCYNSAIQGSVLTSTCERTNGGYNTSSIDLNSVIENVDGSLKWQPSNFIETCRNTQLAGSSELAAECKTRAQQFVSTKINLDDHIANIDGTLKYE
[1]
  IC50 of neutralisation of Env-pseudotyped virus (TZM-bl assay): 4.4 nM
[2]
  IC50 of neutralisation of Env-pseudotyped virus (TZM-bl assay): 1.1 nM
[3]
  IC50 of neutralisation of Env-pseudotyped virus (TZM-bl assay): 1.2 nM
[5]
  IC50 of neutralisation of Env-pseudotyped virus (TZM-bl assay): 1.8 nM
[6]
  IC50 of neutralisation of Env-pseudotyped virus (TZM-bl assay): 0.9 nM
[7]
  IC50 of neutralisation of Env-pseudotyped virus (TZM-bl assay): 2 nM
[8]
  IC50 of neutralisation of Env-pseudotyped virus (TZM-bl assay): 3.9 nM
[9]
  IC50 of neutralisation of Env-pseudotyped virus (TZM-bl assay): 1.4 nM
[20]
  IC50 of neutralisation of Env-pseudotyped virus (TZM-bl assay): 3.1 nM
[10]
  IC50 of neutralisation of Env-pseudotyped virus (TZM-bl assay): 1.2 nM
[12]
  IC50 of neutralisation of Env-pseudotyped virus (TZM-bl assay): 16.7 nM
[13]
  IC50 of neutralisation of Env-pseudotyped virus (TZM-bl assay): 1.8 nM
[22]
  IC50 of neutralisation of Env-pseudotyped virus (TZM-bl assay): 2.5 nM
[23]
  IC50 of neutralisation of Env-pseudotyped virus (TZM-bl assay): 1.5 nM
[14]
  IC50 of neutralisation of Env-pseudotyped virus (TZM-bl assay): 1.2 nM
[24]
  IC50 of neutralisation of Env-pseudotyped virus (TZM-bl assay): 2.5 nM
[15]
  IC50 of neutralisation of Env-pseudotyped virus (TZM-bl assay): 3.1 nM
[16]
  IC50 of neutralisation of Env-pseudotyped virus (TZM-bl assay): 7.5 nM
[25]
  IC50 of neutralisation of Env-pseudotyped virus (TZM-bl assay): 1.1 nM
[27]
  IC50 of neutralisation of Env-pseudotyped virus (TZM-bl assay): 1.1 nM
[17]
  IC50 of neutralisation of Env-pseudotyped virus (TZM-bl assay): 18 nM
[18]
  IC50 of neutralisation of Env-pseudotyped virus (TZM-bl assay): 3 nM
[28]
  IC50 of neutralisation of Env-pseudotyped virus (TZM-bl assay): 1.1 nM
[19]
  IC50 of neutralisation of Env-pseudotyped virus (TZM-bl assay): 1.2 nM
[29]
  IC50 of neutralisation of Env-pseudotyped virus (TZM-bl assay): 0.3 nM
